Source: PMC5389708 (Nucleic Acids Research, 2017)
Substitutions are numbered along the chain they refer to. In names and notes the source's numbering stands. Blank lines part the entries; values can stand above or below the molecule they belong to.

How the values were obtained:
[1] = target: chimpanzee APOBEC3C S188I (chimpanzee); assay: cross-linking
[2] = target: chimpanzee APOBEC3C (chimpanzee); assay: cross-linking
[3] = target: chimpanzee APOBEC3C (chimpanzee); assay: SEC
cross-linking = target: the molecule itself; assay: cross-linking
SEC = target: the molecule itself; assay: SEC

- stoichiometry N [1]: 2
Molecule: chimpanzee APOBEC3C S188I (enzyme)

- stoichiometry N [2]: 2
- stoichiometry N [3]: 2
Molecule: chimpanzee APOBEC3C (enzyme)

B1: gorilla APOBEC3C (enzyme)
chain: MNPQIRNPMKAMYPGTFYFQFKNLWEANDRNETWLCFTVEGIKRRSVVSWKTGVFRNQVDSETHCHAERCFLSWFCDDILSPNTNYQVTWYTSWSPCPECAGEVAEFLARHSNVKLTIFTARLYYFQYPCYQVGLRSLSQEGVAVEIMDYEDFKYCWENFVYNDNEPFKPWKGLKTNFRLLKRRLRESLQ
- stoichiometry N (cross-linking): 2

B2: human APOBEC3C N115K (enzyme)
chain: B1 chain with N85K, E99D, V133E
- stoichiometry N (SEC): 2

B3: gorilla APOBEC3C S188I (enzyme)
chain: B1 chain with S188I
- stoichiometry N (cross-linking): 2

B4: human APOBEC3C S188I (enzyme)
chain: B1 chain with N85K, E99D, K115N, V133E, S188I
- stoichiometry N (cross-linking): 2

B5: human APOBEC3C S188I/N115K (enzyme)
chain: B1 chain with N85K, E99D, V133E, S188I
- stoichiometry N (cross-linking): 2

B6: gorilla APOBEC3C K115N (enzyme)
chain: B1 chain with K115N
- stoichiometry N (cross-linking): 2
